Data from patent publication US11472877 (Alector, dated 2022).
Residue numbers refer to the chain shown, from its start.

Columns and labels:
[1] = biological target: T1, mouse TREM2 on BWZ cells (mouse, UniProt Q99NH8 19-227); assay: FACS, BWZ cells
T1 construct: whole, on cells; also called BWZ Mouse TREM2
T1 sequence (looked up): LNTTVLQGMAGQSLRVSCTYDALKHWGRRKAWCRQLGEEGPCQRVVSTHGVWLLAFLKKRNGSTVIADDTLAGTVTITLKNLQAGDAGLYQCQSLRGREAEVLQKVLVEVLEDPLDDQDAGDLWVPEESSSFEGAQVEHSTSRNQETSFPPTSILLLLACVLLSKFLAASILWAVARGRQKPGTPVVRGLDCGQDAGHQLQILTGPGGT

[2] = biological target: T2, human TREM2 on BWZ cells (human, UniProt Q9NZC2 19-230); assay: FACS, BWZ cells
T2 construct: whole, on cells; not tied to the cell line; also called BWZ Human TREM2
T2 sequence (looked up): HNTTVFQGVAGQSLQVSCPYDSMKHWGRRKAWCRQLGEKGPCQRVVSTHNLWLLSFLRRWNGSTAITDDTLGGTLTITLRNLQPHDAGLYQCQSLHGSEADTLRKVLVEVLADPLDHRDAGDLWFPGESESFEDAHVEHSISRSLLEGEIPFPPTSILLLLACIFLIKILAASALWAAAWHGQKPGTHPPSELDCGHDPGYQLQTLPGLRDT

B1: T1-59 (antibody, IgG1, V domains shown)
VH: QVQLQESGPGLVKPSETLSLTCAVSGYSISSGYYWAWIRQPPGKGLEWIGSIYHSGSTYYNPSLKSRVTISVDTSKNQFSLKLSSVTAADTAVYYCARDLGGYEGAFDPWGQGTLVTVSS
VL: not shown
notes: huIgG1; also called TI-59; ADI-19135
- binding result [1]: no binding
- binding result [2]: no binding

B2: T1-61 (antibody, IgG1, V domains shown)
VH: QVQLQESGPGLVKPSETLSLTCAVSGYSISSGYYWGWIRQPPGKGLEWIGSIYHSGSTYYNPSLKSRVTISVDTSKNQFSLKLSSVTAADTAVYYCARHDDYLSSFDPWGQGTLVTVSS
VL: not shown
notes: huIgG1; also called TI-61; ADI-19137
- binding result [1]: no binding
- binding result [2]: no binding

B3: T1-63 (antibody, IgG1, V domains shown)
VH: QVQLQESGPGLVKPSETLSLTCAVSGYSISSGYYWGWIRQPPGKGLEWIGSIYHSGNTYYNPSLKSRVTISVDTSKNQFSLKLSSVTAADTAVYYCARELYAYSSPMFYGMDVWGRGTTVTVSS
VL: DIQMTQSPSSLSASVGDRVTITCRASQSISRYLNWYQQKPGKAPKLLIYAASSLQSGVPSRFSGSGSGTDFTLTISSLQPEDFATYYCQQLYHAPPITFGGGTKVEIK
notes: huIgG1; also called TI-63; ADI-19139
- binding result [1]: no binding
- binding result [2]: no binding

B4: T1-64 (antibody, IgG1, V domains shown)
VH: QLQLQESGPGLVKPSETLSLTCTVSGGSISSSSYYWGWIRQPPGKGLEWIGSISYSGSTYYNPSLKSRVTISVDTSKNQFSLKLSSVTAADTAVYYCARYYSPYGMDVWGQGTTVTVSS
VL: not shown
notes: huIgG1; also called TI-64; ADI-19140
- binding result [1]: no binding
- binding result [2]: no binding

B5: T1-65 (antibody, IgG1, V domains shown)
VH: QLQLQESGPGLVKPSETLSLTCTVSGGSISSSDYYWGWIRQPPGKGLEWIGSIYYSGSTYYNPSLKSRVTISVDTSKNQFSLKLSSVTAADTAVYYCARDSGQYTGSLDVWGQGTMVTVSS
VL: not shown
notes: huIgG1; also called TI-65; ADI-19141
- binding result [1]: no binding
- binding result [2]: no binding

B6: T1-67 (antibody, IgG1, V domains shown)
VH: QVQLVQSGAEVKKPGASVKVSCKASGYTFTSYGIHWVRQAPGQGLEWMGWISAYNGNTNYAQKLQGRVTMTTDTSTSTAYMELRSLRSDDTAVYYCARGRPSSSWGNWFDPWGQGTTVTVSS
VL: EIVLTQSPGTLSLSPGERATLSCRASQSVSSSFLAWYQQKPGQAPRLLIYGASSRATGIPDRFSGSGSGTDFTLTISRLEPEDFAVYYCQQAVSLPWTFGGGTKVEIK
notes: huIgG1; also called TI-67; ADI-19143
- binding result [1]: no binding
- binding result [2]: no binding

B7: T1-68 (antibody, IgG1, V domains shown)
VH: EVQLVQSGAEVKKPGESLKISCKGSGYSFTTYWIGWVRQMPGKGLEWMGIIYPGDSDTRYSPSFQGQVTISADKSISTAYLQWSSLKASDTAMYYCARGSPWDGRLFDIWGQGTMVTVSS
VL: EIVLTQSPATLSLSPGERATLSCRASQSVSSYLAWYQQKPGQAPRLLIYDASNRATGIPARFSGSGSGTDFTLTISSLEPEDFAVYYCQQFDNLPYTFGGGTKVEIK
notes: huIgG1; also called TI-68; ADI-19144
- binding result [1]: no binding
- binding result [2]: no binding

B8: T1-69 (antibody, IgG1, V domains shown)
VH: QVQLVQSGAEVKKPGASVKVSCKASGYTFTSYGISWVRQAPGQGLEWMGWISAYNGNTNYAQKLQGRVTMTTDTSTSTAYMELRSLRSDDTAVYYCARGAGMYDGSPLGMDVWGQGTTVTVSS
VL: DIQMTQSPSSVSASVGDRVTITCRASQGISSWLAWYQQKPGKAPKLLIYAASNLQSGVPSRFSGSGSGTDFTLTISSLQPEDFATYYCQQATAHPPTFGGGTKVEIK
notes: huIgG1; also called TI-69; ADI-19145
- binding result [1]: no binding
- binding result [2]: no binding

B9: T1-70 (antibody, IgG1, V domains shown)
VH: QVQLVQSGAEVKKPGASVKVSCKASGYTFTSYGIHWVRQAPGQGLEWMGWISAYNGNTNYAQKLQGRVTMTTDTSTSTAYMELRSLRSDDTAVYYCARAGTIYGRLDLWGRGTLVTVSS
VL: B8 VL with M4L, G28D, N53S, T92V, A93S, P96L
notes: huIgG1; also called TI-70; ADI-19146
- binding result [1]: no binding
- binding result [2]: no binding

B10: T1-71 (antibody, IgG1, V domains shown)
VH: EVQLVESGGGLVQPGRSLRLSCAASGFTFGDYAMHWVRQAPGKGLEWVSGISWNSGSIGYADSVKGRFTISRDNAKNSLYLQMNSLRAEDTALYYCAKGPRRTSHLDIWGQGTMVTVSS
VL: B8 VL with S30D, N53S, A93S, H94L, P96L
notes: huIgG1; also called TI-71; ADI-19147
- binding result [1]: no binding
- binding result [2]: no binding

B11: T1-72 (antibody, IgG1, V domains shown)
VH: EVQLVESGGGLVQPGRSLRLSCAASGFTFDDYAMHWVRQAPGKGLEWVSGISWNSGDIGYADSVKGRFTISRDNAKNSLYLQMNSLRAEDTALYYCAKGPRMTHSYFDLWGRGTLVTVSS
VL: not shown
notes: huIgG1; also called TI-72; ADI-19148
- binding result [1]: no binding
- binding result [2]: no binding

B12: T1-73 (antibody, IgG1, V domains shown)
VH: B10 VH with G30D, G99A, R102M, T103Y, S104G, H105Y, L106F, I108L, Q111R, M114S
VL: DIQMTQSPSTLSASVGDRVTITCRASQSISSWLAWYQQKPGKAPKLLIYKASSLESGVPSRFSGSGSGTEFTLTISSLQPDDFATYYCQQYRTYPTFGGGTKVEIK
notes: huIgG1; also called TI-73; ADI-19149
- binding result [1]: no binding
- binding result [2]: no binding

B13: T1-74 (antibody, IgG1, V domains shown)
VH: B10 VH with G30D, R102T, T103R, S104G, H105Y, L106F, I108L, Q111R, M114L
VL: DIQMTQSPSTLSASVGDRVTITCRASQSISSWLAWYQQKPGKAPKLLIYKASSLESGVPSRFSGSGSGTEFTLTISSLQPDDFATYYCQQHSLLSITFGGGTKVEIK
notes: huIgG1; also called TI-74; ADI-19151
- binding result [1]: no binding
- binding result [2]: no binding

B14: T1-75 (antibody, IgG1, V domains shown)
VH: B11 VH with E1Q, G99A, M102T, T103R, H104W, S105T, L109Y, R112Q
VL: EIVLTQSPATLSLSPGERATLSCRASQSVSSYLAWYQQKPGQAPRLLIYDASNRATGIPARFSGSGSGTDFTLTISSLEPEDFAVYYCQHYNLWRTFGGGTKVEIK
notes: huIgG1; also called TI-75; ADI-19152
- binding result [1]: no binding
- binding result [2]: no binding

B15: T1-76 (antibody, IgG1, V domains shown)
VH: not shown
VL: B13 VL with K50D, L93T, L94Y, I96W
notes: huIgG1; also called TI-76; ADI-19153
- binding result [1]: no binding
- binding result [2]: no binding

B16: T1-77 (antibody, IgG1, V domains shown)
VH: QVQLQESGPGLVKPSETLSLTCAVSGYSISSGYYWAWIRQPPGKGLEWIGSIYHSGSTYYNPSLKSRVTISVDTSKNQFSLKLSSVTAADTAVYYCARGGPYPWSGWFDPWGQGTLVTVSS
VL: EIVMTQSPATLSVSPGERATLSCRASQSVGSNLAWYQQKPGQAPRLLIYGASTRATGIPARFSGSGSGTEFTLTISSLQSEDFAVYYCQQHDVWPYTFGGGTKVEIK
notes: huIgG1; also called TI-77; ADI-19154
- binding result [1]: no binding
- binding result [2]: no binding

B17: T1-78 (antibody, IgG1, V domains shown)
VH: B5 VH with D33S, S101L, T105E, S107Y, L108F, V110L, Q113R, M116L
VL: not shown
notes: huIgG1; also called TI-78; ADI-19155
- binding result [1]: no binding
- binding result [2]: no binding

B18: T1-79 (antibody, IgG1, V domains shown)
VH: QLQLQESGPGLVKPSETLSLTCTVSGGSISSSSYYWGWIRQPPGKGLEWIGSIYYSGSTYYNPSLKSRVTISVDTSKNQFSLKLSSVTAADTAVYYCARLGDGYRIWADYWGQGTLVTVSS
VL: not shown
notes: huIgG1; also called TI-79; ADI-19156
- binding result [1]: no binding
- binding result [2]: no binding

B19: T1-1 (antibody, IgG1, V domains shown)
VH: QVQLVQSGAEVKKPGSSVKVSCKASGGTFSSYAISWVRQAPGQGLEWMGGIIPIFGTANYAQKFQGRVTITADESTSTAYMELSSLRSEDTAVYYCARGQGSDHYYYGMDVWGQGTTVTVSS
VL: not shown
notes: huIgG1; also called TI-1; ADI-19067
- binding result [1]: no binding
- binding result [2]: no binding

B20: T1-2 (antibody, IgG1, V domains shown)
VH: QVQLVQSGAEVKKPGSSVKVSCKASGGTFSSYAISWVRQAPGQGLEWMGGIIPIFGTANYAQKFQGRVTITADESTSTAYMELSSLRSEDTAVYYCAREGGPRGASFNWFDPWGQGTLVTVSS
VL: B6 VL with F33Y, A92Y, V93L, S94G, L95F, W97P
notes: huIgG1; also called TI-2; ADI-19068
- binding result [1]: no binding
- binding result [2]: no binding

B21: T1-4 (antibody, IgG1, V domains shown)
VH: QVQLVQSGAEVKKPGSSVKVSCKASGGTFSSYAISWVRQAPGQGLEWMGGIIPIFGTANYAQKFQGRVTITADESTSTAYMELSSLRSEDTAVYYCARHYYYGYAYFDLWGRGTLVTVSS
VL: B16 VL with G30S, H91F, D92N, V93N, W94H, Y96I
notes: huIgG1; also called TI-4; ADI-19070
- binding result [1]: no binding
- binding result [2]: no binding

B22: T1-5 (antibody, IgG1, V domains shown)
VH: QVQLVQSGAEVKKPGASVKVSCKASGYTFTSYYMHWVRQAPGQGLEWMGVINPSGGSTSYAQKFQGRVTMTRDTSTSTVYMELSSLRSEDTAVYYCARESDGIDSYFDYWGQGTLVTVSS
VL: not shown
notes: huIgG1; also called TI-5; ADI-19071
- binding result [1]: no binding
- binding result [2]: no binding

B23: T1-7 (antibody, IgG1, V domains shown)
VH: QVQLVQSGAEVKKPGASVKVSCKASGYTFTSYYMHWVRQAPGQGLEWMGIINPSGGSTSYAQKFQGRVTMTRDTSTSTVYMELSSLRSEDTAVYYCARGLIYGDAFDYWGQGTLVTVSS
VL: not shown
notes: huIgG1; also called TI-7; ADI-19073
- binding result [1]: no binding
- binding result [2]: no binding
